# Measured values as given in the supplement of paper PMC9112550, “Optimization of the antimicrobial peptide Bac7 by deep mutational scanning” (BMC Biology, 2022).
# System: Escherichia coli TOP10
# Test: shrunken log2 fold change of peptide-encoding DNA abundance (4.5 h post-induction vs induction); higher = less antimicrobial activity (less host growth inhibition)
# Settings: time post-induction: 4.5 h; library: site-saturation at positions 5, 18, 19, 20
# 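Further: peptides expressed intracellularly from a pBAD plasmid library in pooled LB shake-flask culture, induced with 0.3% L-arabinose, DNA abundance read by NGS, three biological replicates, DESeq2 with apeglm shrinkage.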
row,Sequence,shrunken log2 fold change
1,RRIRNRPPRLPRPRPRPQFMPRP,-0.709
2,RRIRTRPPRLPRPRPRPMLVPRP,-0.000238
3,RRIRVRPPRLPRPRPRPFRMPRP,-0.247
4,RRIRERPPRLPRPRPRPSSYPRP,-1.12
5,RRIRMRPPRLPRPRPRPSSEPRP,-0.103
6,RRIRARPPRLPRPRPRPNCFPRP,0.0761
7,RRIRKRPPRLPRPRPRPYGVPRP,0.0715
8,RRIRCRPPRLPRPRPRPLGHPRP,-0.372
9,RRIRTRPPRLPRPRPRPRKDPRP,-0.0522
10,RRIRDRPPRLPRPRPRPITVPRP,-0.0979
11,RRIRQRPPRLPRPRPRPGFDPRP,2.69
12,RRIRQRPPRLPRPRPRPKSNPRP,-0.29
13,RRIRMRPPRLPRPRPRPISGPRP,0.0247
14,RRIRQRPPRLPRPRPRPANIPRP,-0.275
15,RRIRVRPPRLPRPRPRPRVLPRP,0.0884
16,RRIRVRPPRLPRPRPRPQFGPRP,-0.018
17,RRIRKRPPRLPRPRPRPLAGPRP,0.286
18,RRIRARPPRLPRPRPRPHECPRP,0.423
19,RRIRFRPPRLPRPRPRPKFIPRP,-1.02
20,RRIRNRPPRLPRPRPRPIDHPRP,-0.169
21,RRIRQRPPRLPRPRPRPTWWPRP,0.314
22,RRIRMRPPRLPRPRPRPNYNPRP,-0.678
23,RRIRWRPPRLPRPRPRPRCTPRP,0.243
24,RRIRNRPPRLPRPRPRPIRYPRP,-0.746
25,RRIRIRPPRLPRPRPRPAGKPRP,0.0304

row,Sequence,shrunken log2 fold change
1,RRIRCRPPRLPRPRPRPSRIPRP,-0.562
2,RRIRPRPPRLPRPRPRPATHPRP,0.0822
3,RRIRLRPPRLPRPRPRPSTVPRP,-0.938
4,RRIRCRPPRLPRPRPRPKKWPRP,0.00275
5,RRIRCRPPRLPRPRPRPTFHPRP,-0.366
6,RRIRGRPPRLPRPRPRPLCVPRP,0.689
7,RRIRMRPPRLPRPRPRPYYRPRP,0.0143
8,RRIRGRPPRLPRPRPRPWNAPRP,0.109
9,RRIRWRPPRLPRPRPRPFRAPRP,-0.112
10,RRIRPRPPRLPRPRPRPCASPRP,-0.0883
11,RRIRWRPPRLPRPRPRPYKRPRP,-0.977
12,RRIRVRPPRLPRPRPRPMRIPRP,0.218
13,RRIRVRPPRLPRPRPRPFCYPRP,-0.133
14,RRIRGRPPRLPRPRPRPHDTPRP,0.358
15,RRIRWRPPRLPRPRPRPTPEPRP,0.711
16,RRIRYRPPRLPRPRPRPGDVPRP,-0.484
17,RRIRPRPPRLPRPRPRPGYSPRP,-0.0781
18,RRIRNRPPRLPRPRPRPYAAPRP,-0.4
19,RRIRFRPPRLPRPRPRPWEYPRP,0.0231
20,RRIRFRPPRLPRPRPRPGPYPRP,-0.0125
21,RRIRQRPPRLPRPRPRPCQHPRP,0.0738
22,RRIRERPPRLPRPRPRPFMAPRP,-0.891
23,RRIRNRPPRLPRPRPRPYCFPRP,-0.516
24,RRIRPRPPRLPRPRPRPCWEPRP,-0.0268
25,RRIRKRPPRLPRPRPRPHQFPRP,-0.114

row,Sequence,shrunken log2 fold change
1,RRIRPRPPRLPRPRPRPAVTPRP,0.0942
2,RRIRVRPPRLPRPRPRPAYIPRP,-0.738
3,RRIRFRPPRLPRPRPRPILAPRP,0.0156
4,RRIRKRPPRLPRPRPRPDVTPRP,1.47
5,RRIRYRPPRLPRPRPRPPNHPRP,-0.626
6,RRIRNRPPRLPRPRPRPAGVPRP,0.329
7,RRIRMRPPRLPRPRPRPNTHPRP,0.136
8,RRIRGRPPRLPRPRPRPRNHPRP,0.563
9,RRIRIRPPRLPRPRPRPLESPRP,0.0516
10,RRIRERPPRLPRPRPRPYPTPRP,-0.397
11,RRIRKRPPRLPRPRPRPFMLPRP,-0.0682
12,RRIRRRPPRLPRPRPRPICLPRP,0.12
13,RRIRCRPPRLPRPRPRPEPEPRP,0.706
14,RRIRARPPRLPRPRPRPWMAPRP,0.0631
15,RRIRKRPPRLPRPRPRPPSRPRP,0.772
16,RRIRFRPPRLPRPRPRPHQMPRP,-0.037
17,RRIRMRPPRLPRPRPRPGINPRP,-0.319
18,RRIRRRPPRLPRPRPRPGEIPRP,0.321
19,RRIRTRPPRLPRPRPRPSPVPRP,0.0854
20,RRIRYRPPRLPRPRPRPWCNPRP,-0.123
21,RRIRNRPPRLPRPRPRPPIEPRP,0.0957
22,RRIRRRPPRLPRPRPRPFHLPRP,-0.184
23,RRIRDRPPRLPRPRPRPYTSPRP,0.0448
24,RRIRDRPPRLPRPRPRPYRVPRP,-0.0135
25,RRIRQRPPRLPRPRPRPCHMPRP,-0.519
